Data as given in US20260242735A1.

Tests used:
Experiment in all cases: flow cytometry on transfected cells, IgG
human CD33 I47Y (human) = human CD33 I47Y (human) (UniProt P20138)
human CD33 H45Y (human) = human CD33 H45Y (human) (UniProt P20138)
human CD33 Y50I (human) = human CD33 Y50I (human) (UniProt P20138)
human CD33 P46D (human) = human CD33 P46D (human) (UniProt P20138)
human CD33 P48I (human) = human CD33 P48I (human) (UniProt P20138)
human CD33 Y49S (human) = human CD33 Y49S (human) (UniProt P20138)
human CD33 T42N (human) = human CD33 T42N (human) (UniProt P20138)
human CD33 P46H (human) = human CD33 P46H (human) (UniProt P20138)
human CD33 P48Q (human) = human CD33 P48Q (human) (UniProt P20138)
human CD33 F44V (human) = human CD33 F44V (human) (UniProt P20138)
human CD33 Y50V (human) = human CD33 Y50V (human) (UniProt P20138)
human CD33 Y49H (human) = human CD33 Y49H (human) (UniProt P20138)
human CD33 F44I (human) = human CD33 F44I (human) (UniProt P20138)
human CD33 P48L (human) = human CD33 P48L (human) (UniProt P20138)
human CD33 Y50Q (human) = human CD33 Y50Q (human) (UniProt P20138)
human CD33 P48K (human) = human CD33 P48K (human) (UniProt P20138)
human CD33 I47V (human) = human CD33 I47V (human) (UniProt P20138)
human CD33 I47T (human) = human CD33 I47T (human) (UniProt P20138)
human CD33 P48W (human) = human CD33 P48W (human) (UniProt P20138)
human CD33 P46L (human) = human CD33 P46L (human) (UniProt P20138)
human CD33 Y50S (human) = human CD33 Y50S (human) (UniProt P20138)
human CD33 I47S (human) = human CD33 I47S (human) (UniProt P20138)
human CD33 P46Y (human) = human CD33 P46Y (human) (UniProt P20138)
human CD33 F44S (human) = human CD33 F44S (human) (UniProt P20138)
human CD33 I47Q (human) = human CD33 I47Q (human) (UniProt P20138)
human CD33 I47E (human) = human CD33 I47E (human) (UniProt P20138)
human CD33 P48H (human) = human CD33 P48H (human) (UniProt P20138)
human CD33 I47R (human) = human CD33 I47R (human) (UniProt P20138)
human CD33 I47P (human) = human CD33 I47P (human) (UniProt P20138)
human CD33 Y49R (human) = human CD33 Y49R (human) (UniProt P20138)
human CD33 P48Y (human) = human CD33 P48Y (human) (UniProt P20138)
human CD33 I47N (human) = human CD33 I47N (human) (UniProt P20138)
human CD33 Y50D (human) = human CD33 Y50D (human) (UniProt P20138)
human CD33 Y49C (human) = human CD33 Y49C (human) (UniProt P20138)
human CD33 Y49G (human) = human CD33 Y49G (human) (UniProt P20138)
human CD33 Y50N (human) = human CD33 Y50N (human) (UniProt P20138)
human CD33 P48G (human) = human CD33 P48G (human) (UniProt P20138)
human CD33 I47L (human) = human CD33 I47L (human) (UniProt P20138)
human CD33 Y49V (human) = human CD33 Y49V (human) (UniProt P20138)
human CD33 Y50R (human) = human CD33 Y50R (human) (UniProt P20138)
human CD33 Y50G (human) = human CD33 Y50G (human) (UniProt P20138)
human CD33 T42P (human) = human CD33 T42P (human) (UniProt P20138)
human CD33 T42K (human) = human CD33 T42K (human) (UniProt P20138)
human CD33 Y49I (human) = human CD33 Y49I (human) (UniProt P20138)
human CD33 F44E (human) = human CD33 F44E (human) (UniProt P20138)
human CD33 Y49L (human) = human CD33 Y49L (human) (UniProt P20138)
human CD33 P46I (human) = human CD33 P46I (human) (UniProt P20138)
human CD33 P46I (human), sequence (P20138 18-364 P46I limits assumed): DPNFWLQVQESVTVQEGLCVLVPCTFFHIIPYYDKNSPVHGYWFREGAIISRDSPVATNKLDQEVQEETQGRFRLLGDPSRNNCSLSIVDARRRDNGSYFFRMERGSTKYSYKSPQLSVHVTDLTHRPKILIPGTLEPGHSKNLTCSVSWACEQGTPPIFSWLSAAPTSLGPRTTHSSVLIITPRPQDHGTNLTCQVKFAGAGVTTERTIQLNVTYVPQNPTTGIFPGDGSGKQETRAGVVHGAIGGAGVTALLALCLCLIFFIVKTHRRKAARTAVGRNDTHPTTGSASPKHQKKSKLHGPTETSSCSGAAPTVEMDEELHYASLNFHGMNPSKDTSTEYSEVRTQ

human CD33 I47E (human), sequence (P20138 18-364 I47E limits assumed): as the sequence (P20138 18-364 P46I limits assumed) above, with I29P, I30E counted along it
human CD33 Y50V (human), sequence (P20138 18-364 Y50V limits assumed): as the sequence (P20138 18-364 P46I limits assumed) above, with I29P, Y33V counted along it
human CD33 I47R (human), sequence (P20138 18-364 I47R limits assumed): as the sequence (P20138 18-364 P46I limits assumed) above, with I29P, I30R counted along it
human CD33 I47S (human), sequence (P20138 18-364 I47S limits assumed): as the sequence (P20138 18-364 P46I limits assumed) above, with I29P, I30S counted along it
human CD33 I47Y (human), sequence (P20138 18-364 I47Y limits assumed): as the sequence (P20138 18-364 P46I limits assumed) above, with I29P, I30Y counted along it
human CD33 P48I (human), sequence (P20138 18-364 P48I limits assumed): as the sequence (P20138 18-364 P46I limits assumed) above, with I29P, P31I counted along it
human CD33 Y50I (human), sequence (P20138 18-364 Y50I limits assumed): as the sequence (P20138 18-364 P46I limits assumed) above, with I29P, Y33I counted along it
human CD33 F44S (human), sequence (P20138 18-364 F44S limits assumed): as the sequence (P20138 18-364 P46I limits assumed) above, with F27S, I29P counted along it
human CD33 P48G (human), sequence (P20138 18-364 P48G limits assumed): as the sequence (P20138 18-364 P46I limits assumed) above, with I29P, P31G counted along it
human CD33 H45Y (human), sequence (P20138 18-364 H45Y limits assumed): as the sequence (P20138 18-364 P46I limits assumed) above, with H28Y, I29P counted along it
human CD33 Y49I (human), sequence (P20138 18-364 Y49I limits assumed): as the sequence (P20138 18-364 P46I limits assumed) above, with I29P, Y32I counted along it
human CD33 Y49R (human), sequence (P20138 18-364 Y49R limits assumed): as the sequence (P20138 18-364 P46I limits assumed) above, with I29P, Y32R counted along it
human CD33 P48Q (human), sequence (P20138 18-364 P48Q limits assumed): as the sequence (P20138 18-364 P46I limits assumed) above, with I29P, P31Q counted along it

Question: For Refmab #7 (WM53) (antibody), which Mean % WT Binding (human CD33 I47Y (human)) is on record?
Answer: Its Mean % WT Binding is 79.6 % WT binding.

Question: And the Mean % WT Binding (human CD33 H45Y (human))?
Answer: The Mean % WT Binding was 75.7 % WT binding.

Question: What about the Mean % WT Binding (human CD33 Y50I (human)) of the same substance?
Answer: The Mean % WT Binding was 5.1 % WT binding.

Question: And the Mean % WT Binding (human CD33 P46D (human))?
Answer: Its Mean % WT Binding is 15.9 % WT binding.

Question: What about the Mean % WT Binding (human CD33 P48I (human)) of the same substance?
Answer: The Mean % WT Binding was 0.1 % WT binding.

Question: And the Mean % WT Binding (human CD33 Y49S (human))?
Answer: The Mean % WT Binding was 3.6 % WT binding.

Question: What about the Mean % WT Binding (human CD33 T42N (human)) of the same substance?
Answer: The Mean % WT Binding was 95.4 % WT binding.

Question: What about the Mean % WT Binding (human CD33 P46H (human)) of the same substance?
Answer: The Mean % WT Binding was 94.3 % WT binding.

Question: And the Mean % WT Binding (human CD33 P48Q (human))?
Answer: The Mean % WT Binding was 1.3 % WT binding.

Question: And the Mean % WT Binding (human CD33 F44V (human))?
Answer: The Mean % WT Binding was 36.1 % WT binding.

Question: And the Mean % WT Binding (human CD33 Y50V (human))?
Answer: Its Mean % WT Binding is 3.9 % WT binding.

Question: And the Mean % WT Binding (human CD33 Y49H (human))?
Answer: The Mean % WT Binding was 27.8 % WT binding.

Question: And the Mean % WT Binding (human CD33 F44I (human))?
Answer: Its Mean % WT Binding is 46.1 % WT binding.

Question: And the Mean % WT Binding (human CD33 P48L (human))?
Answer: The Mean % WT Binding was 0.3 % WT binding.

Question: And the Mean % WT Binding (human CD33 Y50Q (human))?
Answer: Its Mean % WT Binding is 7.2 % WT binding.

Question: What about the Mean % WT Binding (human CD33 P48K (human)) of the same substance?
Answer: The Mean % WT Binding was 1.6 % WT binding.

Question: And the Mean % WT Binding (human CD33 I47V (human))?
Answer: Its Mean % WT Binding is 97.4 % WT binding.

Question: What about the Mean % WT Binding (human CD33 I47T (human)) of the same substance?
Answer: The Mean % WT Binding was 32.7 % WT binding.

Question: And the Mean % WT Binding (human CD33 P48W (human))?
Answer: The Mean % WT Binding was 0.7 % WT binding.

Question: What about the Mean % WT Binding (human CD33 P46L (human)) of the same substance?
Answer: Its Mean % WT Binding is 66.8 % WT binding.

Question: What about the Mean % WT Binding (human CD33 Y50S (human)) of the same substance?
Answer: Its Mean % WT Binding is 7.7 % WT binding.

Question: And the Mean % WT Binding (human CD33 I47S (human))?
Answer: Its Mean % WT Binding is 33.6 % WT binding.

Question: What about the Mean % WT Binding (human CD33 P46Y (human)) of the same substance?
Answer: The Mean % WT Binding was 8.6 % WT binding.

Question: And the Mean % WT Binding (human CD33 F44S (human))?
Answer: Its Mean % WT Binding is 31.8 % WT binding.

Question: What about the Mean % WT Binding (human CD33 I47Q (human)) of the same substance?
Answer: Its Mean % WT Binding is 8.2 % WT binding.

Question: And the Mean % WT Binding (human CD33 I47E (human))?
Answer: The Mean % WT Binding was 3.9 % WT binding.

Question: And the Mean % WT Binding (human CD33 P48H (human))?
Answer: Its Mean % WT Binding is 1.6 % WT binding.

Question: What about the Mean % WT Binding (human CD33 I47R (human)) of the same substance?
Answer: The Mean % WT Binding was 2 % WT binding.

Question: What about the Mean % WT Binding (human CD33 I47P (human)) of the same substance?
Answer: The Mean % WT Binding was 1.2 % WT binding.

Question: What about the Mean % WT Binding (human CD33 Y49R (human)) of the same substance?
Answer: The Mean % WT Binding was 1.6 % WT binding.

Question: And the Mean % WT Binding (human CD33 P48Y (human))?
Answer: The Mean % WT Binding was 0.5 % WT binding.

Question: What about the Mean % WT Binding (human CD33 I47N (human)) of the same substance?
Answer: The Mean % WT Binding was 4.7 % WT binding.

Question: And the Mean % WT Binding (human CD33 Y50D (human))?
Answer: The Mean % WT Binding was 1.2 % WT binding.

Question: What about the Mean % WT Binding (human CD33 Y49C (human)) of the same substance?
Answer: The Mean % WT Binding was 0.6 % WT binding.

Question: What about the Mean % WT Binding (human CD33 Y49G (human)) of the same substance?
Answer: Its Mean % WT Binding is 20.5 % WT binding.

Question: What about the Mean % WT Binding (human CD33 Y50N (human)) of the same substance?
Answer: The Mean % WT Binding was 4.7 % WT binding.

Question: What about the Mean % WT Binding (human CD33 P48G (human)) of the same substance?
Answer: Its Mean % WT Binding is 13.3 % WT binding.

Question: And the Mean % WT Binding (human CD33 I47L (human))?
Answer: Its Mean % WT Binding is 37.4 % WT binding.

Question: And the Mean % WT Binding (human CD33 Y49V (human))?
Answer: Its Mean % WT Binding is 0.9 % WT binding.

Question: And the Mean % WT Binding (human CD33 Y50R (human))?
Answer: Its Mean % WT Binding is 1.7 % WT binding.

Question: And the Mean % WT Binding (human CD33 Y50G (human))?
Answer: Its Mean % WT Binding is 17.2 % WT binding.

Question: And the Mean % WT Binding (human CD33 T42P (human))?
Answer: The Mean % WT Binding was 15.9 % WT binding.

Question: And the Mean % WT Binding (human CD33 T42K (human))?
Answer: The Mean % WT Binding was 77 % WT binding.

Question: What about the Mean % WT Binding (human CD33 Y49I (human)) of the same substance?
Answer: Its Mean % WT Binding is 0.2 % WT binding.

Question: What about the Mean % WT Binding (human CD33 F44E (human)) of the same substance?
Answer: The Mean % WT Binding was 18.3 % WT binding.

Question: And the Mean % WT Binding (human CD33 Y49L (human))?
Answer: Its Mean % WT Binding is 1.6 % WT binding.

Question: And the Mean % WT Binding (human CD33 P46I (human))?
Answer: The Mean % WT Binding was 107 % WT binding.
